Laboratory results published in patent US20230087125A1 (Memorial Sloan Kettering, published 2023).

Target: T1, human CD127 (IL-7R), as used in the scFv binding experiments (human, UniProt P16871 21-239, limits assumed)
T1 construct: also called IL-7Ralpha; interleukin-7 receptor subunit alpha
T1 sequence: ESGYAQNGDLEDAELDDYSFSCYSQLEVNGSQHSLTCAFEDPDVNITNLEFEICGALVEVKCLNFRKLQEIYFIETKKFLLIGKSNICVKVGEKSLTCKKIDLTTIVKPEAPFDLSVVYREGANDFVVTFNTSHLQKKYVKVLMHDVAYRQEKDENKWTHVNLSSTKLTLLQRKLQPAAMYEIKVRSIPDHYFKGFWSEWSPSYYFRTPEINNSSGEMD
Assay: scFv binding experiment, given as ED50; method and format not stated (FIG. 1A)

Binder	EC50 [µg/mL]
scFv703-Fc (VH-VL) (Fc fusion, The Fc is not described; also called scFv703HL; VH-VL scFv of OSE703; not shown: The Fc part implied by the name scFv703-Fc, and any hinge or linker to it) scFv: AVQLVESGGGLVQPGGSLKITCAASGFTFTNAAMYWVRQAPGKGLEWVARIRTKANNYATYYADSVKGRFTISRDDSKSTVYLQMDSVKTEDTATYYCIVVVLTTTRDYFDYWGQGVLVTVSSGGGGSGGGGSGGGGSDIVLTQSPSSLPVTPGEPASISCRSSQSLLTVKGITSLYWFLQKPGQSPKLLIYRMSNRDSGVPDRFSGSGSETDFTLKISRVEAEDVGTYYCAQFLEYPHTFGAGTKLELK	3.32
scFv703-Fc (VL-VH) (Fc fusion, The Fc is not described; also called scFv703LH; VL-VH scFv of OSE703; not shown: The Fc part implied by the name scFv703-Fc, and any hinge or linker to it) scFv: DIVLTQSPSSLPVTPGEPASISCRSSQSLLTVKGITSLYWFLQKPGQSPKLLIYRMSNRDSGVPDRFSGSGSETDFTLKISRVEAEDVGTYYCAQFLEYPHTFGAGTKLELKGGGGSGGGGSGGGGSAVQLVESGGGLVQPGGSLKITCAASGFTFTNAAMYWVRQAPGKGLEWVARIRTKANNYATYYADSVKGRFTISRDDSKSTVYLQMDSVKTEDTATYYCIVVVLTTTRDYFDYWGQGVLVTVSS	0.539
